Like-named read-outs stand apart in the source and are kept apart here.
How the values were obtained:
[1] = target: T1, myostatin (Homo sapiens (Human), UniProt O14793 267-375); assay: cell-based or functional assay
T1 sequence: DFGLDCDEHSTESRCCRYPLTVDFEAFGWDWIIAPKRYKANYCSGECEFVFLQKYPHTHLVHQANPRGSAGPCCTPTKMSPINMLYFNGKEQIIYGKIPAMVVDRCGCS

[2] = target: VEGF (Vascular Endothelial Growth Factor) (UniProt P15692-4 27-191); assay: SPR (Biacore 3000, 25 °C): compound captured to about 1,000 RU on a CM5 chip with the mouse antibody capture kit, VEGF injected for 120 s, 300 s dissociation
Experimental: (§1) Surface plasmon resonance (SPR) experiments were carried out on a Biacore 3000 (Cytiva). A CM5 chip for capture of the compounds was prepared according to the instructions of the mouse antibody capture kit (Cytiva, #BR100838). VGFR(½)-mFc-FSD1, TNFR2-mFc-FSD1, VGFR(½)/FST291-mFc, TNFR2/FST291-mFc, VGFR(½)-hFc (Aflibercept), TNFR2-hFc (Etanercept), and FST315dHBS-mFc (SEQ ID NO: 30, SEQ ID NO: 31) were captured to approximately 1,000 RU (Resonance Units). TNFα (R&D Systems, #210-TA-005,) or VEGF (R&D Systems, #293-VE-010) were then injected for 120 s followed by a 300 s dissociation phase. At the end of each binding cycle, non-covalently attached molecules were removed from both surfaces by a 180 s regeneration with 10 mM glycine, pH 1.7. All proteins were diluted in running buffer ([…], pH 7.5, […], 2 mM CaCl₂) and 0.05% Tween 20). A flow rate of 30 μl/min was used in all steps of the experiments. Binding analysis was performed at 25° C., and data were collected at a rate of 1 Hz. Using the BIAevaluation 4.1.1 software (Cytiva), recorded signals were referenced; the signal from the in-line reference flow cell was subtracted as was the signal from a blank run (0 nM analyte).

[3] = target: T2, GDF11 (Growth Differentiation Factor 11) (Homo sapiens (Human), UniProt O95390 299-407); assay: cell-based or functional assay
T2 sequence: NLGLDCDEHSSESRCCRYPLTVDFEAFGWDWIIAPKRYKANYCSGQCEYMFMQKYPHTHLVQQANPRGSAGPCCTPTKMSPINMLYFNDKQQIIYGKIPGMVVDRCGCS

[4] = target: T3, activin A (human, UniProt P08476 311-426); assay: cell-based or functional assay
T3 sequence: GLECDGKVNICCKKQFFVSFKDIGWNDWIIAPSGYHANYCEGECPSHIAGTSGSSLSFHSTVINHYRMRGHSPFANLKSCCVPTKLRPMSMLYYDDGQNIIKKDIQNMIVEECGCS

[5] = target: T1, myostatin; assay: cell-based or functional assay; remark: listed apart in the source
[6] = target: TNFα (Tumor Necrosis Factor alpha) (UniProt P01375 77-233); assay: SPR (Biacore 3000, 25 °C): compound captured to about 1,000 RU on a CM5 chip with the mouse antibody capture kit, TNFα injected for 120 s, 300 s dissociation
Experimental: as §1

[7] = target: T2, GDF11 (Growth Differentiation Factor 11); assay: cell-based or functional assay; remark: listed apart in the source
[8] = target: T3, activin A; assay: cell-based or functional assay; remark: listed apart in the source
[9] = target: T1, myostatin; assay: cell-based or functional assay; remark: listed apart in the source
[10] = target: T3, activin A; assay: cell-based or functional assay; remark: listed apart in the source
[11] = target: T2, GDF11 (Growth Differentiation Factor 11); assay: cell-based or functional assay; remark: listed apart in the source
[12] = target: T1, myostatin; assay: cell-based or functional assay; remark: listed apart in the source
[13] = target: T2, GDF11 (Growth Differentiation Factor 11); assay: cell-based or functional assay; remark: listed apart in the source
[14] = target: T3, activin A; assay: cell-based or functional assay; remark: listed apart in the source

Chain of TNFα (Tumor Necrosis Factor alpha) (P01375 77-233 limits assumed): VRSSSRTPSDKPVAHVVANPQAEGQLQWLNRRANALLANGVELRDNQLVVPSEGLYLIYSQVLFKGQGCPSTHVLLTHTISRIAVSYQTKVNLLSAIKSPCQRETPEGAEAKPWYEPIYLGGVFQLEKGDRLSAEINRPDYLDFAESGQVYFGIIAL
Chain of VEGF (Vascular Endothelial Growth Factor) (P15692 other isoform, or with tags, fused parts or gaps limits assumed): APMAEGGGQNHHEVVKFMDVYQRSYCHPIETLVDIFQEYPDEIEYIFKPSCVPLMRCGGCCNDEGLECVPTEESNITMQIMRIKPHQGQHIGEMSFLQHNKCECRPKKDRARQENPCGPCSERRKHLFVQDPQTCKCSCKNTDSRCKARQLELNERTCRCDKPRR

B1: VGFR(½)/FST291-mFc (Fc fusion)
chain 1: GNCWLRQAKNGRCQVLYKTELSKEECCSTGRLSTSWTEEDVNDNTLFKWMIFNGGAPNCIPCKETCENVDCGPGKKCRMNKKNKPRCVCAPDCSNITWKGPVCGLDGKTYRNECALLKARCKEQPELEVQYQGRCKKTCRDVFCPGSSTCVVDQTNNAYCVTCNRICPEPASSEQYLCGNDGVTYSSACHLRKATCLLGRSIGLAYEGKCIKAKSCEDIQCTGGKKCLWDFKVGRGRCSLCDELCPDSKSDEPVCASDNATYASECAMKEAACSSGVLLEVKHSGSCNSISPRGPTIKPCPPCKCPAPNLLGGPSVFIFPPKIKDVLMISLSPIVTCVVVDVSEDDPDVQISWFVNNVEVHTAQTQTHREDYNSTLRVVSALPIQHQDWMSGKEFKCKVNNKDLPAPIERTISKPKGSVRAPQVYVLPPPEEEMTEKQVTLTCMVTDFMPEDIYVEWTNNGKTELNYKNTEPVLDSDGSYFMYSWLRVEKKNWVERNSYSCSVVHEGLHNHHTTKSFSRTPGK
chain 2: SDTGRPFVEMYSEIPEIIHMTEGRELVIPCRVTSPNITVTLKKFPLDTLIPDGKRIIWDSRKGFIISNATYKEIGLLTCEATVNGHLYKTNYLTHRQTNTIIDVVLSPSHGIELSVGEKLVLNCTARTELNVGIDFNWEYPSSKHQHKKLVNRDLKTQSGSEMKKFLSTLTIDGVTRSDQGLYTCAASSGLMTKKNSTFVRVHEKPRGPTIKPCPPCKCPAPNLLGGPSVFIFPPKIKDVLMISLSPIVTCVVVDVSEDDPDVQISWFVNNVEVHTAQTQTHREDYNSTLRVVSALPIQHQDWMSGKEFKCKVNNKDLPAPIERTISKPKGSVRAPRVYVLPPPEEEMTKKQVTLTCMVTDFMPEDIYVEWTNNGKTELNYKNTEPVLVSDGSYTMYSKLRVEKKNWVERNSYSCSVVHEGLHNHHTTKSFSRTPGKLVPRGSHHHHHH
notes: Fc heterodimer (knobs-in-holes, murine IgG2A); also called VGFR(1/2)/FST291-mFc; type 4 design compound
[1]
  IC50, neutralisation of 1 ng/mL myostatin (pSmad2/3 luciferase reporter, HEK293 cells) [cont. B]: 1640 pM
[2]
  binding result: binds
[3]
  IC50, neutralisation of 1 ng/mL GDF11 (pSmad2/3 luciferase reporter, HEK293 cells) [cont. B]: 3450 pM
[4]
  IC50, neutralisation of 1 ng/mL activin A (pSmad2/3 luciferase reporter, HEK293 cells) [cont. B]: 584 pM

B2: TNFR2/FST291-mFc (Fc fusion)
chain 1: GNCWLRQAKNGRCQVLYKTELSKEECCSTGRLSTSWTEEDVNDNTLFKWMIFNGGAPNCIPCKETCENVDCGPGKKCRMNKKNKPRCVCAPDCSNITWKGPVCGLDGKTYRNECALLKARCKEQPELEVQYQGRCKKTCRDVFCPGSSTCVVDQTNNAYCVTCNRICPEPASSEQYLCGNDGVTYSSACHLRKATCLLGRSIGLAYEGKCIKAKSCEDIQCTGGKKCLWDFKVGRGRCSLCDELCPDSKSDEPVCASDNATYASECAMKEAACSSGVLLEVKHSGSCNSISPRGPTIKPCPPCKCPAPNLLGGPSVFIFPPKIKDVLMISLSPIVTCVVVDVSEDDPDVQISWFVNNVEVHTAQTQTHREDYNSTLRVVSALPIQHQDWMSGKEFKCKVNNKDLPAPIERTISKPKGSVRAPQVYVLPPPEEEMTEKQVTLTCMVTDFMPEDIYVEWTNNGKTELNYKNTEPVLDSDGSYFMYSWLRVEKKNWVERNSYSCSVVHEGLHNHHTTKSFSRTPGK
chain 2: LPAQVAFTPYAPEPGSTCRLREYYDQTAQMCCSKCSPGQHAKVFCTKTSDTVCDSCEDSTYTQLWNWVPECLSCGSRCSSDQVETQACTREQNRICTCRPGWYCALSKQEGCRLCAPLRKCRPGFGVARPGTETSDVVCKPCAPGTFSNTTSSTDICRPHQICNVVAIPGNASMDAVCTSTSPTRSMAPGAVHLPQPVSTRSQHTQPTPEPSTAPSTSFLLPMGPSPPAEGSTGDPRGPTIKPCPPCKCPAPNLLGGPSVFIFPPKIKDVLMISLSPIVTCVVVDVSEDDPDVQISWFVNNVEVHTAQTQTHREDYNSTLRVVSALPIQHQDWMSGKEFKCKVNNKDLPAPIERTISKPKGSVRAPRVYVLPPPEEEMTKKQVTLTCMVTDFMPEDIYVEWTNNGKTELNYKNTEPVLVSDGSYTMYSKLRVEKKNWVERNSYSCSVVHEGLHNHHTTKSFSRTPGKLVPRGSHHHHHH
notes: Fc heterodimer (knobs-in-holes, murine IgG2A); also called type 4 design compound
[5]
  IC50, neutralisation of 1 ng/mL myostatin (pSmad2/3 luciferase reporter, HEK293 cells) [cont. C]: 1610 pM
[6]
  binding result: binds
[7]
  IC50, neutralisation of 1 ng/mL GDF11 (pSmad2/3 luciferase reporter, HEK293 cells) [cont. C]: 4490 pM
[8]
  IC50, neutralisation of 1 ng/mL activin A (pSmad2/3 luciferase reporter, HEK293 cells) [cont. C]: 525 pM

B3: TNFR2-mFc-FSD1 (Fc fusion)
chain: LPAQVAFTPYAPEPGSTCRLREYYDQTAQMCCSKCSPGQHAKVFCTKTSDTVCDSCEDSTYTQLWNWVPECLSCGSRCSSDQVETQACTREQNRICTCRPGWYCALSKQEGCRLCAPLRKCRPGFGVARPGTETSDVVCKPCAPGTFSNTTSSTDICRPHQICNVVAIPGNASMDAVCTSTSPTRSMAPGAVHLPQPVSTRSQHTQPTPEPSTAPSTSFLLPMGPSPPAEGSTGDPRGPTIKPCPPCKCPAPNLLGGPSVFIFPPKIKDVLMISLSPIVTCVVVDVSEDDPDVQISWFVNNVEVHTAQTQTHREDYNSTLRVVSALPIQHQDWMSGKEFKCKVNNKDLPAPIERTISKPKGSVRAPQVYVLPPPEEEMTKKQVTLTCMVTDFMPEDIYVEWTNNGKTELNYKNTEPVLDSDGSYFMYSKLRVEKKNWVERNSYSCSVVHEGLHNHHTTKSFSRTPGKETCENVDCGPGKKCRMNKKNKPRCVCAPDCSNITWKGPVCGLDGKTYRNECALLKARCKEQPELEVQYQGRCK
notes: expressed in CHO cells; also called type 2 design compound
[6]
  binding result: binds

B4: native full-length follistatin315 (FST315) (other)
chain: GNCWLRQAKNGRCQVLYKTELSKEECCSTGRLSTSWTEEDVNDNTLFKWMIFNGGAPNCIPCKETCENVDCGPGKKCRMNKKNKPRCVCAPDCSNITWKGPVCGLDGKTYRNECALLKARCKEQPELEVQYQGRCKKTCRDVFCPGSSTCVVDQTNNAYCVTCNRICPEPASSEQYLCGNDGVTYSSACHLRKATCLLGRSIGLAYEGKCIKAKSCEDIQCTGGKKCLWDFKVGRGRCSLCDELCPDSKSDEPVCASDNATYASECAMKEAACSSGVLLEVKHSGSCNSISEDTEEEEEDEDQDYSFPISSILEW
[9]
  IC50, neutralisation of 1 ng/mL myostatin (pSmad2/3 luciferase reporter, HEK293 cells): 210 pM
[10]
  IC50, neutralisation of 1 ng/mL activin A (pSmad2/3 luciferase reporter, HEK293 cells): 53 pM
[11]
  IC50, neutralisation of 1 ng/mL GDF11 (pSmad2/3 luciferase reporter, HEK293 cells): 119 pM

B5: VGFR(½)-mFc-FSD1 (Fc fusion)
chain: SDTGRPFVEMYSEIPEIIHMTEGRELVIPCRVTSPNITVTLKKFPLDTLIPDGKRIIWDSRKGFIISNATYKEIGLLTCEATVNGHLYKTNYLTHRQTNTIIDVVLSPSHGIELSVGEKLVLNCTARTELNVGIDFNWEYPSSKHQHKKLVNRDLKTQSGSEMKKFLSTLTIDGVTRSDQGLYTCAASSGLMTKKNSTFVRVHEKPRGPTIKPCPPCKCPAPNLLGGPSVFIFPPKIKDVLMISLSPIVTCVVVDVSEDDPDVQISWFVNNVEVHTAQTQTHREDYNSTLRVVSALPIQHQDWMSGKEFKCKVNNKDLPAPIERTISKPKGSVRAPQVYVLPPPEEEMTKKQVTLTCMVTDFMPEDIYVEWTNNGKTELNYKNTEPVLDSDGSYFMYSKLRVEKKNWVERNSYSCSVVHEGLHNHHTTKSFSRTPGKETCENVDCGPGKKCRMNKKNKPRCVCAPDCSNITWKGPVCGLDGKTYRNECALLKARCKEQPELEVQYQGRCK
notes: expressed in CHO cells; also called VGFR(1/2)-mFc-FSD1; type 2 design compound
[12]
  IC50, neutralisation of 1 ng/mL myostatin (pSmad2/3 luciferase reporter, HEK293 cells) [cont. B]: 37 nM
[2]
  binding result: binds
[13]
  IC50, neutralisation of 1 ng/mL GDF11 (pSmad2/3 luciferase reporter, HEK293 cells) [cont. C]: 21 nM
[14]
  IC50, neutralisation of 1 ng/mL activin A (pSmad2/3 luciferase reporter, HEK293 cells): 18 nM

— patent US20260209291A1 (KAMINO, published 2026)
